Tested on: p54 SAPKβ (JNK3) fused to the WIN-ZIP B1 leucine zipper and Myc tag

Row | Substance | tyrosine phosphorylation of p54 (anti-Myc immunoprecipitates probed with anti-PTyr)
1 | v-Src fused at the N-terminus with HA tag plus WIN-ZIP A1 leucine zipper | p54 is phosphorylated on tyrosine only when the WIN-ZIP A1-Src fusion is present
2 | v-Src fused at the N-terminus with HA tag alone | p54 is phosphorylated on tyrosine only when the WIN-ZIP A1-Src fusion is present (so not with v-Src carrying the HA tag alone)

From patent US20020037999
